Source: publication PMC3790952 (Chembiochem, 2013)

B1: DtcycA (enzyme, Streptomyces sp. SANK 60404, UniProt M1V9Q0 1-371, looked up)
chain: MTDPAVTPLAFSIPQLYCPFPTAIHPEVDTLTRAGMDFMTHHGFCNTEADRLVVANIDAGAIVARWYPNPDFPVDRLQMVTDFLYLYFLIDDLRFEVINSDTGLAGPIALFAQHLDLWEYPQAHRREELDLFHQAIHDLASRMAELTTPTKAARMRRSINGWFLALLREIALFNDDHAVMAEEYLPIRVVTVASRLMIDVNGFICPAEVPGDEWYSLKVQAAAEAAMSVCLYDNELYSAGKEQWLKSRATAHDRRPRNLVALIQAQTGGSTEHALQEVAEYRNRTVCLYLNLRSQLEKTASPALLAYLSVLDGVISGNLDAHATSSRYHNPDGHHPHAIAFTPLRTTDECSARAHTPIAPPIAWWWEQLDQ
B2: DtcycB (enzyme, Streptomyces sp. SANK 60404, UniProt M1VDX3 1-343, looked up)
chain: MDLPPALLSFYCPIASEVSPEHEAVAQEMYAWIHAMSLTSDNRQAKMLAQAGAGFNSYFTPRARGELARALSKYNVCAWIANGMVQEIRDPGTFGAMAARWARIMEEPATCPADGIPMDFALADAFSHIRRTLSPVKWQHFSAAQSHWMHGLAWENCLHQVKGLTVHDYLSFRYVMSGCFAAAAFAYAVPERHPSAEEWAHPKVRAAADAAMMVDALDNDRYSYLKESLTEADKKTIFAALRHENPALGREEVIVRGVQLRDRILTLYLTLRGELLCDASEGLRSYLTGLDLIIAGNLVFCADMGLRYGLPEGSVRTDAEPLDRTVAPPGIGAIDHWWAQAGA

How the values were obtained:
purified protein = substrate: CC(C)=CCC/C(C)=C/CC/C(C)=C/CC/C(C)=C/COP(=O)(O)OP(=O)(O)O; test: purified protein; assay type: biochemical, Streptomyces sp.; conditions: 10 mM MgCl2, 30 °C, GGDP 10-200 μM
SEC = molecular target: the molecule itself; test: SEC

Protein	Km (purified protein) [µM]	kcat (purified protein) [s⁻¹]	stoichiometry N (SEC)
B1	93.7 ± 8.4	0.0467	2
B2	42.1 ± 7.3	0.0217	2
